# Measurements published in patent US20200024322A1 (Eli Lilly, published 2020).
# Residue numbers refer to the chain shown, from its start. Numbered stars: 1 amine (or outer) side, 2 acyl side, 3 side chain; on linkers, the order of the positions; unused ones are H or OH. Square brackets hold non-standard residues; d marks the D form. Side chains are listed from the residue outwards. Ends that are not written are not given here. * marks the point of attachment. C20 diacid = O=C(O)CCCCCCCCCCCCCCCCCCC(=O)*; γGlu = O=C(O)[C@H](CCC(=O)[*:2])N[*:1]; AEEA = NCCOCCOCC(=O)O; Aib = CC(C)(N)C(=O)O
# T1: human GIP receptor (human, UniProt P48546 22-466)
# T1 construct: whole, on cells; Used as crude membranes of stably transfected CHO cells; also called hGIPR
# T1 sequence (looked up): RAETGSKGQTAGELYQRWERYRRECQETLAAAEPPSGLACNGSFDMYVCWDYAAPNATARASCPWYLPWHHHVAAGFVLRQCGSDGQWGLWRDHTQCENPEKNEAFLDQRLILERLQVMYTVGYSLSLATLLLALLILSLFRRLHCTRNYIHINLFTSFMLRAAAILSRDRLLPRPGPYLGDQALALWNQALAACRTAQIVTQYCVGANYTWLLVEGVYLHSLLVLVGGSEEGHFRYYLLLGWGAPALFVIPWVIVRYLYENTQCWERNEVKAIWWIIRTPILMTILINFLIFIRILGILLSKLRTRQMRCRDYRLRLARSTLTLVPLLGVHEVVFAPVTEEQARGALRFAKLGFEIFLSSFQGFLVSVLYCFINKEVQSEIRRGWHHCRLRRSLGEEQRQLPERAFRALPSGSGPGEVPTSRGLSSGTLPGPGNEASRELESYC
# B1: Example 147 (peptide)
# peptide: YXEGTXTSDYSIXLDEKAQXEFIXYLIEGGPSSGAPPPS
# modifications: Aib2; αMeF(2F)6; αMeL13; K17((2-[2-(2-Amino-ethoxy)-ethoxy]-acetyl)2-(γ-Glu)-CO-(CH2)18-CO2H); Aib20; Aad24; C-terminal NH2
# B2: Example 152 (peptide)
# peptide: B1 peptide
# modifications: Aib2; αMeF(2F)6; αMeL13; K17((2-[2-(2-Amino-ethoxy)-ethoxy]-acetyl)2-(γ-Glu)-CO-(CH2)18-CO2H); Aib20; Aib24; C-terminal NH2
# B3: Example 10 (peptide)
# peptide: Y[Aib]EGTFTSDYSILLDSIAQ[Aib]AFIK([AEEA-AEEA-γGlu-C20 diacid])YLLA[Aib]GPSSGAPPPS-NH2
# modifications: N-terminus assumed
# SMILES: CC[C@H](C)[C@H](NC(=O)[C@H](CO)NC(=O)[C@H](CC(=O)O)NC(=O)[C@H](CC(C)C)NC(=O)[C@H](CC(C)C)NC(=O)[C@@H](NC(=O)[C@H](CO)NC(=O)[C@H](Cc1ccc(O)cc1)NC(=O)[C@H](CC(=O)O)NC(=O)[C@H](CO)NC(=O)[C@@H](NC(=O)[C@H](Cc1ccccc1)NC(=O)[C@@H](NC(=O)CNC(=O)[C@H](CCC(=O)O)NC(=O)C(C)(C)NC(=O)[C@@H](N)Cc1ccc(O)cc1)[C@@H](C)O)[C@@H](C)O)[C@@H](C)CC)C(=O)N[C@@H](C)C(=O)N[C@@H](CCC(N)=O)C(=O)NC(C)(C)C(=O)N[C@@H](C)C(=O)N[C@@H](Cc1ccccc1)C(=O)N[C@H](C(=O)N[C@@H](CCCCNC(=O)COCCOCCNC(=O)COCCOCCNC(=O)CC[C@H](NC(=O)CCCCCCCCCCCCCCCCCCC(=O)O)C(=O)O)C(=O)N[C@@H](Cc1ccc(O)cc1)C(=O)N[C@@H](CC(C)C)C(=O)N[C@@H](CC(C)C)C(=O)N[C@@H](C)C(=O)NC(C)(C)C(=O)NCC(=O)N1CCC[C@H]1C(=O)N[C@@H](CO)C(=O)N[C@@H](CO)C(=O)NCC(=O)N[C@@H](C)C(=O)N1CCC[C@H]1C(=O)N1CCC[C@H]1C(=O)N1CCC[C@H]1C(=O)N[C@@H](CO)C(N)=O)[C@@H](C)CC
# B4: Example 11 (peptide)
# peptide: Y[Aib]EGTFTSDYSILLDSIAQ[Aib]AFIEYLLK([AEEA-AEEA-γGlu-C20 diacid])[Aib]GPSSGAPPPS-NH2
# modifications: N-terminus assumed
# SMILES: CC[C@H](C)[C@H](NC(=O)[C@H](CO)NC(=O)[C@H](CC(=O)O)NC(=O)[C@H](CC(C)C)NC(=O)[C@H](CC(C)C)NC(=O)[C@@H](NC(=O)[C@H](CO)NC(=O)[C@H](Cc1ccc(O)cc1)NC(=O)[C@H](CC(=O)O)NC(=O)[C@H](CO)NC(=O)[C@@H](NC(=O)[C@H](Cc1ccccc1)NC(=O)[C@@H](NC(=O)CNC(=O)[C@H](CCC(=O)O)NC(=O)C(C)(C)NC(=O)[C@@H](N)Cc1ccc(O)cc1)[C@@H](C)O)[C@@H](C)O)[C@@H](C)CC)C(=O)N[C@@H](C)C(=O)N[C@@H](CCC(N)=O)C(=O)NC(C)(C)C(=O)N[C@@H](C)C(=O)N[C@@H](Cc1ccccc1)C(=O)N[C@H](C(=O)N[C@@H](CCC(=O)O)C(=O)N[C@@H](Cc1ccc(O)cc1)C(=O)N[C@@H](CC(C)C)C(=O)N[C@@H](CC(C)C)C(=O)N[C@@H](CCCCNC(=O)COCCOCCNC(=O)COCCOCCNC(=O)CC[C@H](NC(=O)CCCCCCCCCCCCCCCCCCC(=O)O)C(=O)O)C(=O)NC(C)(C)C(=O)NCC(=O)N1CCC[C@H]1C(=O)N[C@@H](CO)C(=O)N[C@@H](CO)C(=O)NCC(=O)N[C@@H](C)C(=O)N1CCC[C@H]1C(=O)N1CCC[C@H]1C(=O)N1CCC[C@H]1C(=O)N[C@@H](CO)C(N)=O)[C@@H](C)CC
# B5: Example 157 (peptide)
# peptide: B1 peptide with Y10X, X24E
# modifications: Aib2; αMeF(2F)6; 3Pal10; αMeL13; K17((2-[2-(2-Amino-ethoxy)-ethoxy]-acetyl)2-(γ-Glu)-CO-(CH2)18-CO2H); Aib20; C-terminal NH2
# B6: Example 158 (peptide)
# peptide: B1 peptide with Y10X, X24E
# modifications: Aib2; αMeF(2F)6; 4Pal10; αMeL13; K17((2-[2-(2-Amino-ethoxy)-ethoxy]-acetyl)2-(γ-Glu)-CO-(CH2)18-CO2H); Aib20; C-terminal NH2
# B7: Example 181 (peptide)
# peptide: B1 peptide with Y10X
# modifications: not printed (the compound name of this Example is missing from the table of Examples 6-287)
# B8: Example 202 (peptide)
# peptide: B1 peptide with Y10X, E16K
# modifications: Aib2; αMeF(2F)6; 4Pal10; αMeL13; K17((2-[2-(2-Amino-ethoxy)-ethoxy]-acetyl)-(γ-Glu)-(2-[2-(2-Amino-ethoxy)-ethoxy]-acetyl)-CO-(CH2)18-CO2H); Aib20; D-Glu24; C-terminal NH2
# B9: Example 203 (peptide)
# peptide: B1 peptide with Y10X, E16K
# modifications: Aib2; αMeF(2F)6; 4Pal10; αMeL13; K17((2-[2-(2-Amino-ethoxy)-ethoxy]-acetyl)2-(γ-Glu)-CO-(CH2)18-CO2H); Aib20; D-Glu24; C-terminal NH2
# B10: Example 182 (peptide)
# peptide: B1 peptide with Y10X
# modifications: not printed (the compound name of this Example is missing from the table of Examples 6-287)
# B11: Example 189 (peptide)
# peptide: B1 peptide with Y10X
# modifications: Aib2; αMeF(2F)6; 4Pal10; αMeL13; K17((2-[2-(2-Amino-ethoxy)-ethoxy]-acetyl)2-(γ-Glu)-CO-(CH2)18-CO2H); Aib20; Aib24; C-terminal NH2
# B12: Example 205 (peptide)
# peptide: B1 peptide with Y10X
# modifications: Aib2; αMeF(2F)6; 4Pal10; αMeL13; K17((2-[2-(2-Amino-ethoxy)-ethoxy]-acetyl)2-CO-(CH2)16-CO2H); Aib20; D-Glu24; C-terminal NH2
# B13: Example 206 (peptide)
# peptide: B1 peptide with Y10X
# modifications: Aib2; αMeF(2F)6; 4Pal10; αMeL13; K17((2-[2-(2-Amino-ethoxy)-ethoxy]-acetyl)2-CO-(CH2)18-CO2H); Aib20; D-Glu24; C-terminal NH2
# B14: Example 207 (peptide)
# peptide: B1 peptide with Y10X
# modifications: Aib2; αMeF(2F)6; 4Pal10; αMeL13; K17((2-[2-(2-Amino-ethoxy)-ethoxy]-acetyl)2-(εK)-CO-(CH2)18-CO2H); Aib20; D-Glu24; C-terminal NH2
# B15: Example 12 (peptide)
# peptide: Y[Aib]EGTFTSDYSILLDKIAQK([AEEA-AEEA-γGlu-C20 diacid])AFIEYLIEGGPSSGAPPPS-NH2
# modifications: N-terminus assumed
# SMILES: CC[C@H](C)[C@H](NC(=O)[C@H](CCCCN)NC(=O)[C@H](CC(=O)O)NC(=O)[C@H](CC(C)C)NC(=O)[C@H](CC(C)C)NC(=O)[C@@H](NC(=O)[C@H](CO)NC(=O)[C@H](Cc1ccc(O)cc1)NC(=O)[C@H](CC(=O)O)NC(=O)[C@H](CO)NC(=O)[C@@H](NC(=O)[C@H](Cc1ccccc1)NC(=O)[C@@H](NC(=O)CNC(=O)[C@H](CCC(=O)O)NC(=O)C(C)(C)NC(=O)[C@@H](N)Cc1ccc(O)cc1)[C@@H](C)O)[C@@H](C)O)[C@@H](C)CC)C(=O)N[C@@H](C)C(=O)N[C@@H](CCC(N)=O)C(=O)N[C@@H](CCCCNC(=O)COCCOCCNC(=O)COCCOCCNC(=O)CC[C@H](NC(=O)CCCCCCCCCCCCCCCCCCC(=O)O)C(=O)O)C(=O)N[C@@H](C)C(=O)N[C@@H](Cc1ccccc1)C(=O)N[C@H](C(=O)N[C@@H](CCC(=O)O)C(=O)N[C@@H](Cc1ccc(O)cc1)C(=O)N[C@@H](CC(C)C)C(=O)N[C@H](C(=O)N[C@@H](CCC(=O)O)C(=O)NCC(=O)NCC(=O)N1CCC[C@H]1C(=O)N[C@@H](CO)C(=O)N[C@@H](CO)C(=O)NCC(=O)N[C@@H](C)C(=O)N1CCC[C@H]1C(=O)N1CCC[C@H]1C(=O)N1CCC[C@H]1C(=O)N[C@@H](CO)C(N)=O)[C@@H](C)CC)[C@@H](C)CC
# B16: Example 14 (peptide)
# peptide: Y[Aib]EGTFTSDYSILLDKIAQK([AEEA-AEEA-γGlu-C20 diacid])EFIQYLLE[Aib]GPSSGAPPPS-NH2
# modifications: N-terminus assumed
# SMILES: CC[C@H](C)[C@H](NC(=O)[C@H](CCCCN)NC(=O)[C@H](CC(=O)O)NC(=O)[C@H](CC(C)C)NC(=O)[C@H](CC(C)C)NC(=O)[C@@H](NC(=O)[C@H](CO)NC(=O)[C@H](Cc1ccc(O)cc1)NC(=O)[C@H](CC(=O)O)NC(=O)[C@H](CO)NC(=O)[C@@H](NC(=O)[C@H](Cc1ccccc1)NC(=O)[C@@H](NC(=O)CNC(=O)[C@H](CCC(=O)O)NC(=O)C(C)(C)NC(=O)[C@@H](N)Cc1ccc(O)cc1)[C@@H](C)O)[C@@H](C)O)[C@@H](C)CC)C(=O)N[C@@H](C)C(=O)N[C@@H](CCC(N)=O)C(=O)N[C@@H](CCCCNC(=O)COCCOCCNC(=O)COCCOCCNC(=O)CC[C@H](NC(=O)CCCCCCCCCCCCCCCCCCC(=O)O)C(=O)O)C(=O)N[C@@H](CCC(=O)O)C(=O)N[C@@H](Cc1ccccc1)C(=O)N[C@H](C(=O)N[C@@H](CCC(N)=O)C(=O)N[C@@H](Cc1ccc(O)cc1)C(=O)N[C@@H](CC(C)C)C(=O)N[C@@H](CC(C)C)C(=O)N[C@@H](CCC(=O)O)C(=O)NC(C)(C)C(=O)NCC(=O)N1CCC[C@H]1C(=O)N[C@@H](CO)C(=O)N[C@@H](CO)C(=O)NCC(=O)N[C@@H](C)C(=O)N1CCC[C@H]1C(=O)N1CCC[C@H]1C(=O)N1CCC[C@H]1C(=O)N[C@@H](CO)C(N)=O)[C@@H](C)CC
# What was measured:
# [1] = target: T2, human GLP-1 receptor (human, UniProt P43220 24-463); assay: SPA, [125I]-GLP-1 displacement, hGLP-1R membranes
# T2 construct: whole, on cells; Used as crude membranes of stably transfected HEK293 cells; also called hGLP1R; hGLP-1R
# [2] = target: T3, human glucagon receptor (human, UniProt P47871 26-477); assay: SPA, [125I]-Gcg displacement, hGcgR membranes
# T3 construct: whole, on cells; Used as crude membranes of stably transfected HEK293 cells; also called hGcgR; hGLcgR
# T3 sequence (P47871 26-477): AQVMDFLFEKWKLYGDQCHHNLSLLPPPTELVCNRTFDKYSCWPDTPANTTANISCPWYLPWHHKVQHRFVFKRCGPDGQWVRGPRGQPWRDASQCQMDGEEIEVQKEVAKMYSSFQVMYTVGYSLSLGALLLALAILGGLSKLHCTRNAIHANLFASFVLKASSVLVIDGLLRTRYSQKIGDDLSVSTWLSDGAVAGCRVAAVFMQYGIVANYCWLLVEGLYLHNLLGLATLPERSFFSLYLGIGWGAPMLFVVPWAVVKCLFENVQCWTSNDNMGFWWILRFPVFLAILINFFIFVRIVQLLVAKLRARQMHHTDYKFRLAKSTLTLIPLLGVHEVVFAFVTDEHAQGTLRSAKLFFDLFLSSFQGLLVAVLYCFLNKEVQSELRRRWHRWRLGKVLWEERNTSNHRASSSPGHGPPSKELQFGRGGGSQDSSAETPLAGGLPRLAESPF
# [3] = target: T1, human GIP receptor; assay: SPA, [125I]-GIP displacement, hGIPR membranes
Binder,Ki [1] [nM],Ki [2] [nM],Ki [3] [nM]
B1,4.47,64.9,0.0981
B2,48,93.4,0.117
B3,9.33,226,0.109
B4,15.7,174,0.226
B5,8.97,179,0.0937
B6,11.8,285,0.114
B7,7.28,413,0.145
B8,5.38,394,0.0579
B9,3.9,845,0.0337
B10,4.64,565,0.0669
B11,8.81,146,0.128
B12,3.05,438,0.0367
B13,5.27,176,0.0814
B14,1.37,74.2,0.0786
B15,12.9,684,0.167
B16,29.6,160,0.0494
